Assay results reported in publication PMC5435312, “DNA recognition by an RNA-guided bacterial Argonaute”.

Target: T1, MpAgo D516A (Marinitoga piezophila, UniProt H2J4R4 1-639, D516A)
T1 sequence: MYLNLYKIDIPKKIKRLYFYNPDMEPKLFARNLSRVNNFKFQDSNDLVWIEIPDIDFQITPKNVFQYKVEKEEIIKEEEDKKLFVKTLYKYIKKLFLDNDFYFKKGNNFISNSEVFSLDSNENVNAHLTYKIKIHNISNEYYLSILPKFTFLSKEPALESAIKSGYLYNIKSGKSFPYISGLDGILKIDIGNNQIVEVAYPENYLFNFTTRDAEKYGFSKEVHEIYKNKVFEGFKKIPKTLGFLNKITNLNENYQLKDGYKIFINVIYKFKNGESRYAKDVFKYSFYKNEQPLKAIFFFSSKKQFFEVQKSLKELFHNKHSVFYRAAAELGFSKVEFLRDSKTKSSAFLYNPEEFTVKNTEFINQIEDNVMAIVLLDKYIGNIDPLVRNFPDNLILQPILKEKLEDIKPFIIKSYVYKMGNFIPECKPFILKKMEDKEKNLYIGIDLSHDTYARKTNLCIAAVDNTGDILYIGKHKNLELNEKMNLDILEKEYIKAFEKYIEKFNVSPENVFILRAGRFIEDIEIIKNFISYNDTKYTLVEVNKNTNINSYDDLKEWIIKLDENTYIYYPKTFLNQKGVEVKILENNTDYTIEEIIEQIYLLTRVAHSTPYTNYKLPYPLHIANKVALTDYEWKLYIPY
Assay: X-ray crystallography (3.2 A); 0.1 M MES pH 7.0, 275 mM KI, 27% PEG 4000; guide RNA 1.2x, target equimolar to guide; Crystallization: 0.1 M MES pH 7.0, 275 mM KI, 27% (w/v) PEG 4000, 18 C; protein about 3.5 mg/ml in complex; mismatch guides assayed by cleavage only (no binding read-out)
Conditions: protein: recombinant; tags: His10-Asn10-MBP tag removed by PreScission protease; 21 nt guide and 21 nt target, fully complementary; in the complex guide nt 1 and target C21 are unpaired, 20 bp modeled

B1: 21 nt RNA guide / 21 nt DNA target (DNA:RNA)
RNA: GGUACAACCUACUACCUCAUU
DNA: AATGAGGTAGTAGGTTGTACC
modifications: 5'-OH RNA guide; 5'-phosphate DNA target
B1: binds.
